Key:
ErbB2 [1] = biological target: T1, ErbB2 (UniProt P04626 23-652, limits assumed); assay: BIAcore 2000 SPR, ErbB2 amine-coupled to the chip, antibody injected
T1 construct: also called HER2; antigen

ErbB2 [2] = biological target: T1, ErbB2; assay: cell-based or functional assay
ErbB2 [3] = biological target: T1, ErbB2; assay: BIAcore 2000 SPR, ratio of KD values

| Binder | Kd (ErbB2 [1]) [nM] | koff (ErbB2 [1]) [s⁻¹] | kon (ErbB2 [1]) [M⁻¹ s⁻¹] | inhibition of NCI-N87 cell proliferation (WST-8, 6 days), IC50 (ErbB2 [2]) [nM] | fold increase of affinity against the parent antibody 4D5 (ErbB2 [3]) [fold] |
| --- | --- | --- | --- | --- | --- |
| humanized antibody A091 (antibody, V domains shown, Expressed as a whole humanized antibody in CHO-s cells) VH: EVQLVESGGGLVQPGGSLRLSCAASGFNIKDTYIHWVRQARGKGLEWVARIYPTNGYTRYADSVKGRFTISADTSKNTAYLQMNSLRAEDTAVYYCSRWGGWGFYAFALWGQGTLVTVSS VL: DIQMTQSPSSLSASVGDRVTITCRASQDVNTAVAWYQQKPGKAPKLLIYTTTWPYSGVPSRFSGSRSGTDFSLTISSLQPEDFATYYCQQYYNTPVTFGQGTKVEIK | 1.07 | 0.000688 | 644000 | 10.3 | – |
| humanized antibody A058 (antibody, V domains shown, Expressed as a whole humanized antibody in CHO-s cells) VH: EVQLVESGGGLVQPGGSLRLSCAASGFNIKDTYIHWVRQAPGKGLEWVARIYPTNGYTRYADSVKGRFTISADTSKNTAYLQMNSLRAEDTAVYYCSRWGGWGFYAFALWGQGTLVTVSS VL: DIQMTQSPSSLSASVGDRVTITCRASQDVNTAVAWYQQKPGKAPKLLIYSASFLYSGVPSRFSGSRSGTDFTLTISSLQPEDFATYYCQQHYQTPASFGQGTKVEIK | 0.533 | 0.000278 | 522000 | 4.3 | – |
| humanized antibody AH16 (antibody, V domains shown, Expressed as a whole humanized antibody in CHO-s cells) VH: EVQLVESGGGLVQPGGSLRLSCAASGFNIKDTYIHWVRQAPGKGLEWVARIYPTNGYTRYADSVKGRFTISADTSKNTAYLQMNSLRAEDTAVYYCSRWNAKGFYSFVHWGQGTLVTVSS VL: not shown | 0.297 | 0.00012 | 404000 | – | ~2 |
